Source: US20260209306A1 (ALIVEGEN, published 2026)
Positions count from the first letter of the chain named.

T1: myostatin (UniProt O14793 267-375)
T1 sequence (looked up): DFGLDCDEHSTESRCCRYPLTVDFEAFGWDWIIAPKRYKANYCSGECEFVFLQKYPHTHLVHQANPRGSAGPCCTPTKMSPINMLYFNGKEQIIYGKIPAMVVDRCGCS

T2: activin A (UniProt P08476 311-426)
T2 sequence (looked up): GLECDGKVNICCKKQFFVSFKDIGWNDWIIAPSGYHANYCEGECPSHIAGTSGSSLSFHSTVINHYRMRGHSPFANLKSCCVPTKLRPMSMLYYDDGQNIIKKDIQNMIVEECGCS

T3: activin B (UniProt P09529 293-407)
T3 sequence (looked up): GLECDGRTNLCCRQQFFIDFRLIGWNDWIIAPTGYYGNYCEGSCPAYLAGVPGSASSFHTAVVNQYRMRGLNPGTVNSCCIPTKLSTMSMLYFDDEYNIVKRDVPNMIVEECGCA

T4: BMP9 (UniProt Q9UK05 320-429)
T4 sequence (looked up): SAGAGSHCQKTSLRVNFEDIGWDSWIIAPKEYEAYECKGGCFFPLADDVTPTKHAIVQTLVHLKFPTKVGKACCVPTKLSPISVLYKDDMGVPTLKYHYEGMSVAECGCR

B1: wild-type ActRIIB-ECD-Fc fusion protein (Fc fusion, not shown: a dimerising Fc or GST)
chain: ETRECIYYNANWELERTNQSGLERCEGEQDKRLHCYASWRNSSGTIELVKKGCWLDDFNCYDRQECVATEENPQVYFCCCEGNFCNERFTHLPEAGGPEVTYEPPPTAPTGGGGSESKYGPPCPPCP
B2: AG-0014 hybrid ActRIIB ligand trap protein (Fc fusion, not shown: a dimerising Fc or GST)
chain: B1 chain with E26Y, E28D, Q29K, L33R
B3: AG-0011 hybrid ActRIIB ligand trap protein (Fc fusion)
chain: B1 chain with E28D, A68E, T69K, E70K, E71D, N72S, Q74E, F84M
notes: ECD - linker - hinge linker - Fc; signal peptide left out; not shown: human Fc domain
B4: AG-0027 hybrid ActRIIB ligand trap protein (Fc fusion, not shown: a dimerising Fc or GST)
chain: B1 chain with E28D, F58I, E70K

Columns and labels:
myostatin [1] = biological target: T1, myostatin; assay: cell-based or functional assay
activin A = biological target: T2, activin A; assay: cell-based or functional assay
activin B = biological target: T3, activin B; assay: cell-based or functional assay
BMP9 [2] = biological target: T4, BMP9; assay: cell-based or functional assay
BMP9 [3] = biological target: T4, BMP9; assay: Octet Red BLI; trap loaded on AHC biosensor
Procedure: (§1) Myostatin and BMP9 binding activities of various hybrid ActRIIB ligand trap proteins were initially analyzed using Octect Red (ForteBio). Purified proteins or conditioned media were individually loaded to AHC biosensors with maximum loading. Following a baseline washing phase, the sensors were exposed to 10 nM myostatin or BMP9, respectively, for an association step followed by a dissociation step. All experiments were performed with shaking at 1,000 rpm. Binding activity was analyzed using ForteBio's software with KD being calculated using the ratio Kd/Ka.

myostatin [4] = biological target: T1, myostatin; assay: Octet Red BLI; protein on AHC biosensor, 10 nM ligand; legend +++ KD <10^-8M
Procedure: as §1

| Cell-Based IC50 (nM) Against Myostatin; C2C12-CAGA-luc reporter (myostatin [1]) [nM] | Cell-Based IC50 (nM) Against Activin A; C2C12-CAGA-luc reporter (activin A) [nM] | Cell-Based IC50 (nM) Against Activin B; C2C12-CAGA-luc reporter (activin B) [nM] | Cell-Based IC50 (nM) Against BMP9; C2C12-BRE-luc reporter (BMP9 [2]) [nM] | binding result (BMP9 [3]) | KD (myostatin [4]) [nM] | Binder |
| --- | --- | --- | --- | --- | --- | --- |
| 1.24 | 1.27 | 1.04 | 3.4 |  |  | B1 |
| 0.95 | 1.15 | 2.1 |  |  |  | B2 |
|  |  |  |  | no binding (tested: 10 nM BMP9) | < 10 | B3 |
| 1.14 | 1.62 | 1.3 |  |  |  | B4 |
